Laboratory results published in US20230078601A1 (CLEVELAND CLINIC FOUNDATION, published 2023).

Key:
[1] = target: T1, mouse AMHR2 (in lysate of a normal young C57BL/6 female mouse ovary) (mouse, UniProt Q8K592 16-568, limits assumed); assay: Western blot of mouse ovary lysate
T1 construct: Denatured ovary lysate on a Western blot; also called mouse AMHR2-ED
T1 sequence (looked up): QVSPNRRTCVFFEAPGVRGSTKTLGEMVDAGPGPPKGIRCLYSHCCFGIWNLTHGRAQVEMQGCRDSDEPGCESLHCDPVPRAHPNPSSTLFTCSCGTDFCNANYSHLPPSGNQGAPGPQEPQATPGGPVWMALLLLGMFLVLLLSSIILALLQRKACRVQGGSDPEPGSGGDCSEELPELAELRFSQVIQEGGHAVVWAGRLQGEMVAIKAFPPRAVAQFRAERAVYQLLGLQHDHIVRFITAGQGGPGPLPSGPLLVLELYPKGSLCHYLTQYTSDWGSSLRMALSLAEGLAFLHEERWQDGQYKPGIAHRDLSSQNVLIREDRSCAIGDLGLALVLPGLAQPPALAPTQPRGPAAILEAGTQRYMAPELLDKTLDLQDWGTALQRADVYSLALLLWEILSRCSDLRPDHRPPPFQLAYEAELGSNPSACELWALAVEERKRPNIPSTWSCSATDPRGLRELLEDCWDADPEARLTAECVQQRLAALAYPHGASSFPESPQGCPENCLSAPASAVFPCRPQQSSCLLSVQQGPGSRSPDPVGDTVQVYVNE
Procedure: The suspension was centrifuged to remove debris, the lysates were washed in PBS, and 25 μg of protein from each lysate was loaded into each lane of denaturing SDS-PAGE gels (Bio-Rad). Gels were transferred onto polyvinylidene difluoride (PVDF) membranes (Bio-Rad) and treated with the 4D12G1 mAb at 0.001 μg/ml as primary antibody. In FIG. 2D, a commercially available AMHR2-ED mAb (#sc-377413; Santa Cruz Biotechnology, Dallas, Tex.) at 1.0 μg/ml was used instead of the 4D12G1 mAb as the primary antibody for detecting AMHR2-ED. Western blots of lysates were used to detect capase-3-mediated cleavage of poly (ADP-ribose) polymerase-1 (PARP-1) in AMHR2-OVCAR8 cells treated with increasing concentrations of 4D12G1 mAb (1.0-10 μg/ml) by using a primary rabbit antibody for detection of the intact 116 kDa PARP-1 and its 89 kDa cleaved variant associated with apoptosis (Cell Signaling Technology, Danvers, Mass.). Secondary detection antibodies included treatment with a 1:10,000 dilution of an HRP-conjugated rabbit anti-mouse IgG (MilliporeSigma) or a 1:5,000 dilution of an HRP-conjugated goat anti-rabbit antibody (MilliporeSigma). […]

Native p17-33 = target: T2, Native p17-33; assay: SPOT peptide array of membrane-bound 17-mer peptides, 4D12G1, chemiluminescence
T2 construct: also called AMHR2-ED 17-33 17-mer peptide
T2 peptide: GSTKTLGELLDTGTELP
Procedure: on cellulose membranes (JPT Peptide Technologies, Berlin, Germany), treated overnight with blocking buffer (Thermo Fisher), followed by treatment with the 4D12G1 mAb at 1.0 μg/ml for 3 hours at room temperature, followed by three washes with PBS containing 0.01% Tween-20 (Bio-Rad). The membranes were then treated with a 1:10,000 dilution of an HRP-conjugated rabbit anti-mouse IgG (MilliporeSigma) followed by three washes with PBS containing 0.01% Tween-20 (Bio-Rad). Bound antibody was detected using the HyGLO chemiluminescence system (Thomas Scientific).
An overlapping series of 16-mer peptides spanning the entire 132 amino acid sequence of human AMHR2-ED (FIG. 3A) with moving single amino acid shifts were plated for direct ELISA testing using the 4D12G1 mAb as primary antibody. […] To determine amino acids recognized by the 4D12G1 mAb, an overlapping series of peptides spanning the immunoreactive sequence comprising AMHR2-ED 13-30 were synthesized with alanine substitutions at each N-terminal residue or with glycine substitutions for any native N-terminal alanine. These peptides were used in competitive ELISAs to determine which residues inhibit binding of the 4D12G1 mAb with solid phase rhAMHR2-ED. […] Bound antibody was detected by chemiluminescence. […]

binding result [1]: binds
binding result (Native p17-33): binds
B1: 4D12G1 mAb (antibody, IgG1, V domains shown)
VH: DVKLVESGGGLVKLGGSLKLSCAASGFTFSRYFMSWVRQTPEKRLELVAAINSDGGRTYYPDTVKGRFTISRDNAKNTLYLQMSSLKSEDTALYYCTRHIYSYYEDYFDYWGQGTTLTVSS
VL: DVVMTQTPLSLPVSLGDQASISCRSSQSLVHSNGNTYLHWYLQKPGQSPKLLIYKVSKRFSGVPDRFSGSGSGTDFTLKISRVEAEDLGVYFCSQSTHVYTFGGGTKLEIK
notes: also called 4D12G1 IgG1 mAb
